Assay: yeast display, Sf9 membrane polyspecificity reagent, FACS + sequencing; frameworks hold sequencing errors
Summary of the method: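 Genes from sorted yeast were amplified by colony PCR, read by MiSeq 2 × 250 sequencing and filtered on CDR length. These cells carried a synthetic nanobody library in Saccharomyces cerevisiae BJ5465 and were sorted by FACS into low and high (top ~1%) gates on anti-HA and streptavidin fluorescence. Polyreactivity is labelled according to the gate of origin.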

| Sequence | polyreactivity (PSR sort gate) |
| --- | --- |
| QVQLVESGGGLVQAGGSLRLSCAASGRTFASYAMGWYRQAPGKERELVATIRSGDSTNYADSVKGRFTISRDNAKHTVYLQMNSLKPEDTAVYYCAADRDIFQQGANGAPYDYRGQGTQVTVSS | low polyreactivity |
| QVQLVESGGGLVQAGGSLRLSCAASGRTFASYAMGWYRQAPVKERELVARISKSGGSTYYADSVKGRFTISRDNAKNTVYLQMNSLKPEDTAVYYCAATRYPYLYRSEVGSDYWGQGTQVNVSS | low polyreactivity |
| QVQLVESGGGLVQAGGSLRLSCAASGRTFASYAMGWYRQATGKERELVAAITGSGGSTYYADSVKGRFTISRDNAKNTVYLQMNSLKPEDTAVYYCNKGPHYPVYLEYIVGYDYWGQGTQVTVSS | low polyreactivity |
| QVQLVESGGGLVQAGGSLRLSCAASGRTFATNAMGWYRQAPGKERELVAAITSRGGSTYYADSVKGRFTISRDNAKNTVYLQMNSLKPEDTAVYYCAAETSPSWYTWVTYDYWGQGTQVTVSS | high polyreactivity |
| QVQLVESGGGLVQAGGSLRLSCAASGRTFATYAMGWYRPAPGKERELVAAISRSGSTTYYADSVKGRFTISRDNAKNTVYLQMNSLKPEDTAVYYCNAKFRKADYDYWGQGTQVTVSS | high polyreactivity |
| QVQLVESGGGLVQAGGSLRLSCAASGRTFAVNAMGWYRQAPGKEREFVARISTRGGGTYYADSVKGRFTISRDNAKNTVYLQMNSLKPEDTAVYYCNAGRTRNYYYYPMDYWGQGTQVTVSS | high polyreactivity |
| QVQLVESGGGLVQAGGSLRLSCAASGRTFAVYAMGWYRQAPGKERELVASIRLSGTRTYYADSVKGRFTISRDNAKNTVYLQMNSLKPEDTAVYYCAAKGTYSRGTFNGYRYDYWGQGTQVTVSS | high polyreactivity |
| QVQLVESGGGLVQAGGSLRLSCAASGRTFAVYAMGWYRQAPGKERELVATINGGGNTNYADSVKGRFTISRDNAKNTVYLQMNSLKPVDTAVYYCAADAWDHWTWFYPTNGMDYWGQGTQVTVSS | low polyreactivity |
| QVQLVESGGGLVQAGGSLRLSCAASGRTFAWNAMGWYRQAPGKERELVAAISSRGTSTYYADSVKGRFTISRDNAKNTVYLQMNSLKPEDTAVYYCAKYTNPASGEYGYWGQGTQVTVSS | high polyreactivity |
| QVQLVESGGGLVQAGGSLRLSCAASGRTFAWYAMGWYRQAPGKERELVAAISSGGSTYYADSVKGRFTISRDNAKKTVYLQMNSLKPDDTAVYYCAAEWHYIYAYDYWRQGTQVTVSS | low polyreactivity |
| QVQLVESGGGLVQAGGSLRLSCAASGRTFAWYAMGWYRQAPGKERELVATITSRGGSTYYADSVKGRFTISRDNAKNTVYLQMNSLKPEDTAVYYCAAQSFWRPHQYDYWGQGTQVTVSS | low polyreactivity |
| QVQLVESGGGLVQAGGSLRLSCAASGRTFAYNTMGWYRQAPGKESELVAAITWSGGGTYYADSVKGRFTISRDNAKNTVYLQMNSLKPEDTAVYYCAVEYASPRARYRYYYWGQGTQVTVSS | high polyreactivity |
| QVQLVESGGGLVQAGGSLRLSCAASGRTFAYYAMGWYIPGPGKERELVAAISSGGSTYYADCVKGRFTISRDNAKNTVYLQMNSLIPEDTAVYYCATRDKQYYYWGQGTQVTVSS | high polyreactivity |
| QVQLVESGGGLVQAGGSLRLSCAASGRTFAYYAMGWYRQAPGKERELVAAIDLSDGTTFYADSVKGRFTISRDNAKNTVYLQMNSLKPEDTSVYYCAAELFNVSYGSDFDYWGQGTQVTVSS | low polyreactivity |
| QVQLVESGGGLVQAGGSLRLSCAASGRTFAYYAMGWYRQAPGKERELVAAISSGGGSTYYADSVKGRFTISRDNAKNTVYLQMNSLKPEDTAVYYCNKGFEYWGQGTQVTVSS | high polyreactivity |
| QVQLVESGGGLVQAGGSLRLSCAASGRTFAYYAMGWYRQAPGKVRELVAAISSGGRTNYADSVKGRFTISRDNAKNTVYLQMNSLKPEDTAVYYCARKAAYQIYNGQYGGFGYGYWGQGTQVTVSS | high polyreactivity |
| QVQLVESGGGLVQAGGSLRLSCAASGRTFCRYAMGWYRQAPGKERELVAAIRSGASTYYADSVKGRFTISPDNGKNTVYLQMKSLIPEDTAVYYCAADIARHLTGFAYYRLDYWGQGTQVTVSS | low polyreactivity |
| QVQLVESGGGLVQAGGSLRLSCAASGRTFCYYAMVWYRRAPGKERELVAAISWSGSRTYYADSVKGRFTISRDNANNSVYLQMTSLKPEDTAVYYCAAGARGLFWEYDYWGQGTQVTVSS | high polyreactivity |
| QVQLVESGGGLVQAGGSLRLSCAASGRTFDAYAMGWYRQAPGKERELVAAISSGGSTNYADSVKGRFTISRDHAKNTVYLQMNSLKPEDTAVYYCAAEYIQYLFYSVRVAYDYWGQGTQVTVSS | low polyreactivity |
| QVQLVESGGGLVQAGGSLRLSCAASGRTFDDYAMGWSRQAPGTERELVAAITSGGSTYYADSVKGRFTISRDNAKNTVYLQMNSLKPEDTAVYYCNARSPRPYAYRPYDYWGQGTQVTVSS | low polyreactivity |
| QVQLVESGGGLVQAGGSLRLSCAASGRTFDGYDMGWYRQAPGQERELVAAINVVGGSTYYADSVKGRFTISRDNAKNTVYLQMNSLKPEDTAVYYCAADDYIYTVYSYTYEYWGQGTQVTVSS | low polyreactivity |
| QVQLVESGGGLVQAGGSLRLSCAASGRTFDIYAMGWYRQAPGKERELVADITWSDGTTYYADSVKRRFTISRDNAKNTVYLQMTSLTPEDTAVYYCNAYTVYAYDYWGQGTQVTVSS | low polyreactivity |

| Sequence | polyreactivity (PSR sort gate) |
| --- | --- |
| QVQLVESGGGLVQAGGSLRLSCAASGRTFDLYAMGWYRQAHGKERELVAAIRWSSGNTYYADSVKGRFTISRDNAKNTVYLQMNSLKPEDTAVYYCNDELVPFRFEYWGQGTQVTVSS | low polyreactivity |
| QVQLVESGGGLVQAGGSLRLSCAASGRTFDLYAMGWYRQAPGKERELVAAISGRGGRTYYADSVKGRFTISRDNAKNTVYLQMNSLKPEDTAVYYCAARTGATSRIRFDYWGQGTQVTVSS | low polyreactivity |
| QVQLVESGGGLVQAGGSLRLSCAASGRTFDLYAMGWYRQAPGKERELVAAITKGGGSTYYADSVKGRFTISRDNAKNTVYLQMNSLKPEDTAVYYCAARFYYPWLYLFDSWGQGTQVTVSS | high polyreactivity |
| QVQLVESGGGLVQAGGSLRLSCAASGRTFDNNAMGWYRQAPGKERELVAAINWSGVRTYYADSVKGRFTISRDNAKNTVYLQMNSLKPEDTAVYYCNTVSASYYYRYNSWGQGTQVTVSS | high polyreactivity |
| QVQLVESGGGLVQAGGSLRLSCAASGRTFDRNAMGWYRQAPGKERELVAAITSRGGRTYYADSVKGRFTISRDNAKNTVYLQMKSLKPEDTAVYYCAADLFSSRVRSNFDYWGQGTQVTVSS | high polyreactivity |
| QVQLVESGGGLVQAGGSLRLSCAASGRTFDRYAMGWYRQAPGKERELVAAISRGGITYYADSVKERFTISRDNAKNTVYLQMNSLKPEDTAVYYCNAVRWADGDYWGQGTQVTVSS | high polyreactivity |
| QVQLVESGGGLVQAGGSLRLSCAASGRTFDRYAMGWYRQAPGKERELVAAISSGTSTNYADSVKGRFTISRDNAKNTVSLQMNSLKPEDTAVYYCNVDSPLQPYRYYYWGQGTQVTVSS | low polyreactivity |
| QVQLVESGGGLVQAGGSLRLSCAASGRTFDRYAMGWYRQAPGKERELVAVIRFIGGSTYYADSVKGRFTISRDNAKNTVYLQMISLKPEDTAVYFCAADATIDWVDYDYWGQGTQVTVSS | low polyreactivity |
| QVQLVESGGGLVQAGGSLRLSCAASGRTFDSYAMGWYRQAPGKERELVAAIYADSVKGRFTISRDNAKNTVYLQMNSLKPEDTAVYYCAARDPSRHARRAYDYWGQGTQVTVSS | low polyreactivity |
| QVQLVESGGGLVQAGGSLRLSCAASGRTFDSYTMGWYRQAPGKERELLADITFTGGSTYYADSVKGRFTISRDNAKNTVYLQMNSLKPEDTAVYYCAAESVAILGLVYPKGYGYWGQGTQVTVSS | low polyreactivity |
| QVQLVESGGGLVQAGGSLRLSCAASGRTFDVYAMGGYRQAPGKERELVATIYYRSARTYYADSVKGRFTISRDNAKNTVYLQMNSLTPEDTAVYYCAAYFETWHGFGYWGQGTQVTVSS | high polyreactivity |
| QVQLVESGGGLVQAGGSLRLSCAASGRTFDVYAMGWYRQAPGKERELVAAISSSGGSTYYADSVKGRFTISRDNAKNTVYLQMNSLKPEDTAVYYCAVYYYSVYQYQAMDYWGQGTQVTVSS | low polyreactivity |
| QVQLVESGGGLVQAGGSLRLSCAASGRTFDYYAMGWYRPAPGKERELVARISWNGGSTRYADSVKGRFTISRDNAKNTVYLQMNSLKPEDTAVYYCKKVPYYAGQHYDYWGRGTQVTVSS | high polyreactivity |
| QVQLVESGGGLVQAGGSLRLSCAASGRTFDYYSMGWYRQAPGKERELVAAIRGSGGSTYYADSVKGRFTISRDNAKNTVSLQMNSLKPEDTAVYYCATDPPYFRTPWEYDYWGQGTQVTVSS | low polyreactivity |
| QVQLVESGGGLVQAGGSLRLSCAASGRTFEGNAMGWYRQAPGKERELVAAISGSGGRTYYADSVKGRFTISRDHAKNTVYLPMNSLKPEHTAVYYATLYSVYNPWRFNYWGQGTQVTVSS | high polyreactivity |
| QVQLVESGGGLVQAGGSLRLSCAASGRTFEIYAMGWYRQEPGKERELVAAITSGGSTYYADSVKGRFTISRDNAKNTVYLQMNSLKPEDTAVYYCNAYLYYDAHGVDYWGQGTQVTVSS | high polyreactivity |
| QVQLVESGGGLVQAGGSLRLSCAASGRTFEPNDMGWYRQAPGKERELVAAISSSDGSTYYADSVKGRFTISRDNAKNTVYLQMNSLKPEDTALYYCAADAGYLYDWPYNYYYWGQGTQVTVSS | low polyreactivity |
| QVQLVESGGGLVQAGGSLRLSCAASGRTFEQNVMGWYRQAPGTERELVAAITTGGSTNYADSVKGRFTISRDNAKNTVYLQMNSLKPEDTAVYYCAADRYLGGDYDYWGQGTQVTVSS | low polyreactivity |
| QVQLVESGGGLVQAGGSLRLSCAASGRTFERYAMGWYRQAPGQERELVAGITGRGGRTYYADSVKGRFTISRDNAKNTVYLQRNSLKPEDTAVYYCNKDTWVIHNYRYDYWGQGTQVTVSS | low polyreactivity |
| QVQLVESGGGLVQAGGSLRLSCAASGRTFEYNAMGWYRQAPGKERELVATIRYSGTSTYADSVKGRFTISRDNAKNTVYFQMNSLKPEDTAVYYCAKQVRYYGYKYNYWGQGTQVTVSS | high polyreactivity |
| QVQLVESGGGLVQAGGSLRLSCAASGRTFEYNDMGWYRQSPGKERELVAAISWRGTSTYYADSVKGRFTISRDNAKNTVYLQMNSLKPEDTAVYYCAADYSYSFYYAYYWGQGTQVTVSS | high polyreactivity |

Reference: the nanobody polyreactivity screen of Harvey et al. (2022)
